# Source: the nanobody polyreactivity screen of Harvey et al. (2022)
# Assay: yeast display, Sf9 membrane polyspecificity reagent, FACS + sequencing; frameworks hold sequencing errors
# How it was run: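 Synthetic nanobody libraries on Saccharomyces cerevisiae BJ5465 were galactose-induced for 36–48 hours, stained 1 hour at 4 °C with 10% biotinylated, detergent-solubilized Sf9 membrane reagent and enriched on streptavidin microbeads. FACS then separated cells into low and high (top ~1%) gates by anti-HA (expression) and streptavidin (reagent binding) fluorescence. Genes were colony-PCR amplified, MiSeq 2 × 250 sequenced and CDR-length filtered. A clone's polyreactivity label is that of its gate of origin.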
row,Sequence,polyreactivity (PSR sort gate)
1,QVQLVESGARLVQAGGSLRLSCAASGRTVAYNAMGWSREAAGKEREVDPAISRRGGSTYYADSVKGRFTISRDNAKNTVNLQMNSLKPEDTAVYYCASRRLRRASSLDYWGQGSQVTVSS,high polyreactivity
2,QVQLVESGGGSVQAGGSLRLSCAASGFTIRTYAMGWYRQAPGKERELVAAITSSGSSTYYAYSVKGRFTISRDNAKNTVYLQMNSLKPEDTAVYYCAADAPRSYRFGYWGQGTQVTVSA,high polyreactivity
3,QVQLVESGGGLVQAGGSLRLSCAASGSIFGSYAMGWYRQAPGKERELVAAISGSGGRTYYADSVKGRFTISRDNAKNTVYFQMNSLKPEVTAVYYCAAAYPRVTYKYGYYWGLGTQVTVSS,high polyreactivity
4,QVQLVESGGGLIQAGGSLRLSCAASGSTFANNAMGWYRPAPGKERELVAAISYNGGSTYYADSVKGRFTISRDNAKNTVYLQMNSLKPEDTAVYYCAAYHFRAPSEYDYWGQGTQVTVSS,low polyreactivity
5,QVQLVESGGGLVQAGGSLRLSCAASGRTFGYYAMGWYRQAPGKEREFVAAISSSGGSTYYADSVKGRFTISRDNAKNTVYLQMNSLKPEDTAVYYCAARRNYFYGYYYWGQGTQVTVSS,high polyreactivity
6,QVQLVESGGGLVQAGGSLRLSCAASGRTFAGNAMGWYRQAPGKERELVATITSRGTITYYADSVKGRFTISRDNAKNTVYLQMHSLKPEDTAVSYCNVRYYFPRYQQPYQLNEYYYWGQGTQVTVSS,low polyreactivity
7,QVQLVESGGGLVQAGGSLRLSCAASGRTLYGYPMGWYRQAPGKERELVAAISKRGTRTYYADSVKGRFTISRDNAKNTVYIQMNSLKPEDTAVYYCAARYPPDEATMVYWGQGTQVTVSS,high polyreactivity
8,QGQLVESGGGIVQAGCSLLLSCSASGLIFRRKTLGWYRQAPGTERELVAVISSSGSSTYYADSVKGRFTISRDNAKNTVYLQMNSLKPEDTAVYYCAARYAIGPGYDYWGQGTQVTVSS,high polyreactivity
9,QVQLVESGGGLVQAGGSLRLSCAASGSTFSDYAMGWYRQAPGKERELVAAISGGGTTDYADSVKGRFTISRDNAKNTVYLQMNSLKPEDTAVYYCNKPVEGSFLPYSYLRFDYWGQGTQVTVSS,low polyreactivity
10,QDQLVESGGGLVQAGGSLRLSCAASGRTSIWNAMGWYRQAPGKERELVASISWSGGSTYYADSVKGRFTISRDNAKNTVYLQMNSLKPEDTAVYYCAKTAYFLVFNEHLHKKRYDSWGQGTQVTVSS,low polyreactivity
11,QVQLVESGGGLVQAGGSLRLSCAASGFTFPVYAMGWYRQAPGKEREFVAAITYIGGSTYADSVKGRFTISRDNAKNTVYLQMNSLKPEDTAVYYCNADDARLFDYWGQGTQVTVSS,low polyreactivity
12,QVQLVESGGGLVQAGGSLRLSCAASGSTLYNNAMGWYRQAPGKERELVAAITRRGGSTYYADSVKGRFTISRDNAKNTVYLQMNSLNPEDTAVYFCAADDSRYASGQFQEEYDYWGLGTQVTVSS,low polyreactivity
13,QVQLVESGGGLVQAGGSLRLSCAASGRTFYSYAMGWYRQAPGKERELVAAISRGGNTYYADSVKGRFTISRDNAKNTVYLQMNSLKPEDTAVYYCAVVRVTYYASIYHRGYDYWGQGTQVTVSS,low polyreactivity
14,QVQLVESGGGLVQAGGSLRLSCAASGYTFHGYAMGWYRQAPGKERELVAVITQRGGSTYYADSVKGRFTISRDNAKNTVYLQMNSLKPEDTAVYYCAARYAGPSPTDTGHDYWGQGTQVTVSS,low polyreactivity
15,QVQLVESGGGLVQAGGSLRLSCDASGRIYEVYAMGWYRRAPGKERELVAAISADGTITSYADSVKGRFTISRDNAKNNVYLQMNSLKPEDTAVYYCNADPRFRGDYWGQGTQVTVSS,high polyreactivity
16,QVQHVESGGGLVQAGGSHRLSCAASGRIFTQNSMGWYRQAPGKERELVAAINATDGSTYADSVKGRFTISRDNAKNTVYLQMKSLKREDTSVYYCYFTGGPYDFTRWSEFDHWGQGTQVTVSS,low polyreactivity
17,QLQLVESGGGLVQAGGSLRLRCAASGNTFYQYAMGWYIQAPGQQREMVAAISSGGRTNYADSVKGRFTISRDNAKNNVYLQMNSLKPEDTAVYYFAADVGYFKSDYWGQGTQVTVSS,low polyreactivity
18,QVQLQESGGGLVHAGGSLRLSCAASGTISFINMMGWYRQAPGRERELVASINFGANTNYADSVKGRFTISRDNAKNTVYLQMNSLKPEYTAVYYCAVYDFDAYSLYYWGQGTLVTVSS,high polyreactivity
19,QVQLVESGGGLVQAGGSLRLSCAASGRIFRYNAMGWYRQAPGKERELVAAISRGGSSTYYADSVKGRFTISRDNAKNTVYLQMNSLKPEDTAVYYCNARSVVREFNYWGQGTQVTVSS,high polyreactivity
20,QGQLVESGGALVQAGGSLRLSCAPSGSTFGVYTMGWYRQAPGKERELVAAITKSGGSTYYADSVKGRFTISRDNAKNTVYLQMNSLKPEDTAVYYCNTDYGSYLYYRYGYWGQGTQVTVSS,low polyreactivity
21,QVQLVDSGGGLVQAGGSLRLSCAASGYTFVGYAMGWSRQAPGKERELVAVISGSGGSTRYADSVKGRFTISRDNAKNTVYLQMNSLKPEDTAVYYCAARQPRTQAVYEGYYWGQGTQVTVSS,high polyreactivity
22,QVQLVESGGGLVQAGGSLRLSCASSGRIFYYNTMGWYRQAPGKERELVAAINWSGTSTYYADSVKGRFTISRDNAKNTVYLQMNSLKPEDTAVYYCAAYYRYRVTYDYYYWGQGTQVTVSS,high polyreactivity

row,Sequence,polyreactivity (PSR sort gate)
1,QVHLVESGGGLVQAGGSLRLSCAASGSTFVGYAMGWYRQAPGKERELVAAISGGDSTYYADSVKGRFTISRDNAKNTVYLQMNSLKPEDTAVYYCNADYGDTFEYDYWGQGTQVTVSS,low polyreactivity
2,QVQRVESGGGLVQAGGSLRLSCAASGYTFLRYAKGSYRQAPGKERELVAAISRRGGRTYYADSVKGRFTISRDNAKNTVYLQMNSLKPEDTAVYYCAAVNSTQTIGLMDYWGQGTQVTVSS,high polyreactivity
3,QVQLVESGGGLVQAGGSLRLSCAASGSIFLVTAMGWYRQAPGKERELVAAITFGGDSTYYADSVKGRFTISRDNAKNTVYLQMNSLKPEDTAVYYCAADPSPYGDEYDYWGQGTQVTVSS,low polyreactivity
4,QVQLVESGGGLVQAGGSLRLSCAASVRIFGSNVMGWYRQAPGKERELVASISSGGTTYYADSVKGRFTISRDNAKYTVYLQMNSLKPEDTAVYYCAKQWTRIYQYRWYPGTRTGYDYWGQGTQVTVSS,high polyreactivity
5,QVQLVESGGGLVQAGGSLLLSCAASGRTFYYNAMGWYRQAPGKERELVAAISRGGNTNYADSVKGRFTISRDNAKNTVYLQMNSLKPEDTAVYYCSTYHRYKFYYWGQGTQVTVSS,high polyreactivity
6,QVQLVESGGGLVQAGGSLRLSCAASGSTFRRYAMGWYRQAPGKERELVAAITGSGGRTYYADSVKGRFTISRDNAKNTVYLQMNSLKPEDTAVYYCAKDSYTRPRGYDYWGQGTQVTVSS,high polyreactivity
7,QVQLVESGGGLVQAGGSLRLSCAASGSTFYAYDMGWYRQAPGKEREWVAAISRSGGNTYYADSVKGRFTISRDYAKNTVYLQMNSQKPEDTAVYYCNARSSVYGHRKGSARIPRYDYWGQGTQVTVSS,high polyreactivity
8,QVQLVESGGGLVQAGGSLRLSGAASGRTFGSNDMGWYRQAHGKERELVAAISGRTDSTYYADSVKGRFTISRDIAKNTVYLQMNSLKPEDTAVYYCAADSADVLYYYIRYNYWGQGTQVTVSS,low polyreactivity
9,QFQLVESGGGLVQAGGSLRLSCAASGINFGRNTMGMYRQAPGKERELVAAIDSGGNTYADSVKGRFTISRDNAKNTVYLQMNSLKPEDTAVYFCAVDGGEFSSYGYWGQGTQVTVSS,low polyreactivity
10,QVQLVESGGGLVQAGGSLRLSCAASGSTFDAYAMGWYRQAPGKERELVAAITNAGSTNYADSVKGRFTISRDNAKNTVYLQMNSLKPEDTAVFYCAADVSRWLDYGYDYWGQGTQVTVSS,low polyreactivity
11,QVQLVESGGGLVQAGGSLRLTCAASGSTFYSNAMGWYRQAPGKERYLVAAITSRGDRTYYADSVKGRFTISRDNAKNTVYFQLNSLNPEDTAVYSCAAEQSWQGYAYYYWGQGTQVTVSS,high polyreactivity
12,QVQLVESGGGLVQAGGSLRLSCAASGRIFAFNAMGWYRQAPGKERELVADITSSGVNTYYADSVKGRFTISRDNAKNTVYLQMNSLKPEDTAVYYCAARSYLRWWVGMEYWGQGTQVTVSS,low polyreactivity
13,QVQLVESGGGLVQAGGSLRLSCAASGFIYWYAMGWSRQAPGKERELVAAITWSGGSTYADSVKGRFTISRDNAKNTVYLQMNSLKPEDTAVYYCAADKYSQWSSHTRVRYDYWGQGTQVTVSS,low polyreactivity
14,QVQLVESGGGLVQAGGSLRLSCAASGSTFRTYAMGWYRQAPGKERELVADITWRGGSTYYADSVKGRFTISRDNAKNTVYLQMNSLKPEDTAGYYCATDRGPEVVLYDYWGQGTQVTVSS,low polyreactivity
15,QVQLVESGGGLVQAGGSLRLSFAASGITFSLYVMGWYRQAPGKERELVAAISYRGGTTYYADSVKGRFTISRDNAKNTVYLQMNSLKPEDTAVYYCAARGSRDRQEAEYGYWGQGTQVTVSS,high polyreactivity
16,QVQLVESGGGVVQAGGSLRLSCAASGRTFYRYAMGWYRQAPGKERELDAAISWRGGSTRYADSVKGRFTISRDNAKNTVYFQMNSLKPEDTAVYSCATRSTYWGWSSYGMDHWGQGTQVTVSS,high polyreactivity
17,QVQLVESGGGLVQAGGSLRLSCAASGRTLVGYAMGWYIQAPGKERELVAAISSRGGGTYYADSVKGRFTISRDNAKNTVYLQMNSLKQEDTAVYYCEVSGASYSWGQGTQVTVSS,high polyreactivity
18,QVQLVESGGGLVQAGGSLRLSCAASGSTFGFNAMGWYRQAPGKERELLPLFWSGGSTYYADSVKGRFTISRDNAKNTVYLQMNSLKPEDTAVYYCNKDSPPITRYDYWGQGTQVTVSS,low polyreactivity
19,QVQLVESGGGLVQAGGSLRLSCAASGSIFSANAMGWYRQAPGKERELVAAISSSGNTNYSDSVKWRFTISRDNAKNTFYLQMNSLKPEDTAVYYCAVELKQVTPGLGYITLDYWGQGTQVTVSS,low polyreactivity
20,QVQLVESGGGLVQAGGSLRLSCAASGSIFVTNAMGWYRQAPGKERELVAAISGGADSTYADSVKGRFTISRDNAKNTVYFQMNSLKPEDTAVYYCAAKVRGWHYYYWGQGTQVTVSS,low polyreactivity
21,QVQLVESGGGLVQAGGSLRLSCAASGSIFYIYAMGWYRQAPGKERELVAGIRNGGSTKYADSVKGRFTISRDNAKNTVYLQMNSLKPEDTAVYYCAARYYRPYTSSWAHNYRLDDWGQGSQVTVSS,high polyreactivity
